From article PMC8792006, “Engineering the stambomycin modular polyketide synthase yields 37-membered mini-stambomycins” (Nature Communications, 2022)

T1: ^NDD5 (N-terminal docking domain of stambomycin PKS subunit Pks5) (Streptomyces ambofaciens ATCC23877)
T1 chain: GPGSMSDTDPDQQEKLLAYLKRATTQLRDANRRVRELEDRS

T2: ^NDD9 Val (N-terminal docking domain of stambomycin PKS subunit Pks9, version with the Val start site) (Streptomyces ambofaciens ATCC23877)
T2 chain: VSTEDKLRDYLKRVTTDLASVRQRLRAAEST

T3: ^NDD9 Met (N-terminal docking domain of stambomycin PKS subunit Pks9, version with the Met start site) (Streptomyces ambofaciens ATCC23877)
T3 chain: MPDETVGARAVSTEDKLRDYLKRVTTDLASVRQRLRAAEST

B1: ^CDD4 wt (C-terminal docking domain of stambomycin PKS subunit Pks4) (domain or fragment)
chain: GPGSYADRLLAELARLEADLTRMDGDEEDRTRLAARLRALADRCQGERTRRDDNLDAASIEEVFDLLDTEFETP
B2: ^CDD4 helix swap (C-terminal docking domain of Pks4 with its docking α-helix exchanged for that of ^CDD8) (domain or fragment)
chain: GPGSYADRLLAELARLEADLTRMDGDEEDRTRLAARLRALADRCQGERTRRDDNLDAADDDNLFAFIDNELGA
B3: ^CDD8 (C-terminal docking domain of stambomycin PKS subunit Pks8) (domain or fragment)
chain: GPGSYGPAALLADLDRLDAALAGTGPGDETRSRVISRLHALLARHDTADGSGLVTAAGNLDAADDDNLFAFIDNELGA
B4: ^CDD4 SDM (C-terminal docking domain of Pks4 with 3 specificity-code residues mutated to match ^CDD8) (domain or fragment)
chain: GPGSYADRLLAELARLEADLTRMDGDEEDRTRLAARLRALADRCQGERTRRDDNLDAASIDEVFDLIDTELETP

Legend:
[1] = molecular target: T1, ^NDD5 (N-terminal docking domain of …); assay: ITC; ^CDD (700 μM) in the syringe titrated into the ^NDD in the cell (^NDD5 70 μM; ^NDD9 Met 80 μM; ^NDD9 Val 120 μM); 20 °C; buffer GF (20 mM HEPES, 100 mM NaCl, 0.5 mM TCEP, pH 7.5); one-site binding model; two independent titrations; settings: both partners purified
[2] = molecular target: the molecule itself; assay: SEC-MALS; Superdex75 10/300, 20 °C, 0.5 mL min^-1, 20 mM HEPES, 100 mM NaCl, 0.5 mM TCEP, pH 7.5; each docking domain alone
[3] = molecular target: T2, ^NDD9 Val (N-terminal docking domain of …); assay: ITC; ^CDD (700 μM) in the syringe titrated into the ^NDD in the cell (^NDD5 70 μM; ^NDD9 Met 80 μM; ^NDD9 Val 120 μM); 20 °C; buffer GF (20 mM HEPES, 100 mM NaCl, 0.5 mM TCEP, pH 7.5); one-site binding model; two independent titrations; settings: both partners purified
[4] = molecular target: T3, ^NDD9 Met (N-terminal docking domain of …); assay: as above; settings: both partners purified

Binder	Kd [1] [µM]	stoichiometry N [1]	stoichiometry N [2]	Kd [3] [µM]	stoichiometry N [3]	Kd [4] [µM]	stoichiometry N [4]
B1	14.5 ± 0.9	2 monomeric ^NDDs per homodimeric ^CDD	2				
B2			2	21 ± 0.3			
B3			2	22 ± 1	2 monomeric ^NDDs per homodimeric ^CDD	33 ± 2	2 monomeric ^NDDs per homodimeric ^CDD
B4			2				
